Measured values: paper doi:10.1101/2025.08.24.672003, “Structural characterization of MAM01 and other cost-effective engineered monoclonal antibodies for malaria prevention” (bioRxiv, 2025)
Substitutions are numbered along the chain they refer to. Ends that are not written are not given here.

T1: PfCSP major repeat region peptide NPNA3, biotinylated (Plasmodium falciparum, also: biotin label, end not given here)
T1 peptide: NPNANPNANPNA

T2: PfCSP N-terminal junctional region peptide, biotinylated (KQPADGNPDPNANPNV) (Plasmodium falciparum, also: biotin label, end not given here)
T2 peptide: KQPADGNPDPNANPNV

T3: PfCSP junctional region peptide, biotinylated (NPDPNANPNVDPNANP) (Plasmodium falciparum, also: biotin label, end not given here)
T3 peptide: NPDPNANPNVDPNANP

T4: PfCSP minor repeat region peptide, biotinylated (NVDPNANPNVDPNANPNVDP) (Plasmodium falciparum, biotinylated (end not stated))
T4 peptide: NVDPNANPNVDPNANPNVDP

T5: PfCSP N-terminal junctional region peptide, biotinylated (KQPADGNPDPNANPNV) (Plasmodium falciparum 3D7, also: biotinylated, end not given here)
T5 construct: Plasmodium falciparum circumsporozoite protein (PfCSP), N-terminal junctional region; source: synthetic peptide, bought: Innopep Inc
T5 chain: KQPADGNPDPNANPNV

T6: PfCSP junctional region peptide, biotinylated (NPDPNANPNVDPNANP) (Plasmodium falciparum 3D7, also: biotinylated, end not given here)
T6 construct: Plasmodium falciparum circumsporozoite protein (PfCSP), junctional region; source: synthetic peptide, bought: Innopep Inc
T6 chain: NPDPNANPNVDPNANP

B1: Fab MS-1805 (engineered AB007088) (Fab, V domains shown)
VH: QVQLVESGGGVVQPGRSLRLSCAASGFTFNTYGMHWVRQAPGKGLEWVAIIWYDGSQKYYADSVQGRFTISRDNHKNTLYLQMNSLRAEDTAVYFCVRVRFSVGPHGSAFDLWGQGTMVTVSS
VL: GVQMTQSPSTLSASVGDRVTLTCRASQSISSWLAWYQQKPGKAPKLLIYDASSLESGVPSRFSGSGSGTEFTLTISSLQPDDFATYYCQQYNSYSFWTFGQGTKVEIK
B2: Fab 7088 (antigen-binding fragment of mAb AB007088) (Fab, V domains shown)
VH: B1 VH with T28A, A40T, T69I, Y80S, S85G, T120I
VL: B1 VL
B3: Fab 224 (antigen-binding fragment of mAb AB000224) (Fab, V domains shown)
VH: EVQLVESGGGLVQPGRSLRLPCTASGFSFGDHAMSWVRQAPGKGLEWVGFIRKTTYGATTHYAAAVRGRFTISRDDSKSIVYLQMNSLKTEDTAVYFCTRVQLDYGPGYQYYGMDVWGQGTTVTVSS
VL: ESVLTQPPSVSGAPGQRVTISCTGMNSNIGAGYDVYWYQQLPGRAPKLLIYGNSNRPSGVPDRFSGSRSGTSASLAITGLQAEDEADYYCQSYDTSLNGWAFGGGTKLTVL
notes: Fab 224 heavy chain (IGHV3-49) is in PDB 6WFY (cited) and PDB 9NOB (apo, deposited here); Fab 224 light chain (IGLV1-40) is in PDB 6WFY (cited) and PDB 9NOB (apo, deposited here); IGHV3-49/IGLV1-40; the expression methods name only the Fab genes of MAM01, 7088 and MS-1805, not Fab 224
B4: Fab MAM01 (engineered AB000224) (Fab, V domains shown)
VH: B3 VH with P21S, I80T, T90A, T99A
VL: B3 VL with E1Q, R44T
notes: as the heavy chain of m1 (Fab 224, PDB 6WFY) with the stated framework changes (Kabat numbering); as the light chain of m1 (Fab 224, PDB 6WFY) with the stated changes (Kabat numbering); Fab only; the LS mutations of the Fc are not part of it; also called MS-1797; MAM01 Fab; source: ExpiCHO cells, purified (HiTrap Protein G HP, size exclusion chromatography)

Legend:
[1] = target: T1, PfCSP major repeat region peptide …; assay: BLI
[2] = target: T2, PfCSP N-terminal junctional region …; assay: BLI
[3] = target: T3, PfCSP junctional region peptide, …; assay: BLI
[4] = target: T4, PfCSP minor repeat region peptide, …; assay: BLI
[5] = target: T5, PfCSP N-terminal junctional region …; assay: BLI; biotinylated peptides (10 ug/mL) loaded on streptavidin biosensors; Fabs in solution at 200, 100, 50, 25, 12.5 nM; kinetics buffer 1X PBS, 0.01% BSA, 0.002% Tween 20; 300 s association, 300 s dissociation; Octet Red; 1:1 global fit; details: both partners purified
[6] = target: T6, PfCSP junctional region peptide, …; assay: as above; details: both partners purified

Binder | Kd [1] [nM] | Kd [2] [nM] | Kd [3] [nM] | Kd [4] [nM] | binding result [5] | Kd [6] [nM]
B1 | 25 | 23 | 20 | 28 |  | 
B2 | 15 | 15 | 16 | 20 |  | 
B3 | 3.5 |  | 72 | 2.9 | no binding (tested: 200 nM) | 
B4 | 4.1 |  |  | 3.5 | no binding (tested: 200 nM) | 108
